Consider seven molecules from article PMC9962925, “PKD autoinhibition in trans regulates activation loop autophosphorylation in cis” (Proceedings of the National Academy of Sciences of the …, 2023).

The target of data set [1] is ULD-PKD1^KD chimera with (Gly)10 linker (human).
Data set [2] addresses PKD1 ubiquitin-like dimerization domain (PKD1^ULD) (human). The experiment in a line: SEC; analytical size exclusion chromatography of purified proteins (Fig. 1C); elution volumes calibrated to monomer and dimer masses by SEC-MALS.
Data set [3] deals with PKD1 kinase domain construct, unphosphorylated (PKD1^KD 0P), wild type (human) (UniProt Q15139). Described as above.
For data set [4] the target is unchanged. The data set is described as follows: SEC-MALS; 60 uL of purified protein at 2 mg/mL on an S200 10/300 column, room temperature, 20 mM HEPES pH 7.4, 150 mM KCl, 1 mM EDTA, 1 mM TCEP, 1% glycerol (Fig. 1H).
Data set [5] deals with ULD-PKD1^KD chimera with (Gly)5 linker (human).
Data set [6] deals with the molecule itself. The data set is described as follows: SEC; analytical size exclusion chromatography of purified proteins (Fig. 1C); elution volumes calibrated to monomer and dimer masses by SEC-MALS.

Take ULD-PKD1^KD chimera with (Gly)10 linker: in data set [1], the initial catalytic rate of Syntide-2 phosphorylation at 50 nM, against PKD1^KD alone is 5 fold.
Consider “PKD1 ubiquitin-like dimerization domain (PKD1^ULD) (domain or fragment)”, for which, in data set [2], the stoichiometry N was determined as 2.
On to “PKD1 kinase domain construct, unphosphorylated (PKD1^KD 0P), wild type (from UniProt Q15139 570-890) (domain or fragment)”, for which the stoichiometry N in data set [3] and in data set [4] was 2 throughout.
Turning to ULD-PKD1^KD chimera with (Gly)5 linker, the initial catalytic rate of Syntide-2 phosphorylation at 50 nM, against PKD1^KD alone in data set [5] came out at 5 fold.

B1: PKD1^KD S738E (domain or fragment, human, UniProt Q15139 570-890, looked up)
chain: QIQENVDISTVYQIFPDEVLGSGQFGIVYGGKHRKTGRDVAIKIIDKLRFPTKQESQLRNEVAILQNLHHPGVVNLECMFETPERVFVVMEKLHGDMLEMILSSEKGRLPEHITKFLITQILVALRHLHFKNIVHCDLKPENVLLASADPFPQVKLCDFGFARIIGEKEFRRSVVGTPAYLAPEVLRNKGYNRSLDMWSVGVIIYVSLSGTFPFNEDEDIHDQIQNAAFMYPPNPWKEISHEAIDLINNLLQVKMRKRYSVDKTLSHPWLQDYQTWLDLRELECKIGERYITHESDDLRWEKYAGEQGLQYPTHLINPSAS
notes: Protein kinase D1 (PKD1), human, kinase domain construct, residues 570 to 890; also called single glutamate substitution of S738; source: recombinant, purified to homogeneity
Regarding B1, the binding result in data set [6] was “binds”.

B2: PKD1^KD S742E (domain or fragment, human, UniProt Q15139 570-890, looked up)
chain: QIQENVDISTVYQIFPDEVLGSGQFGIVYGGKHRKTGRDVAIKIIDKLRFPTKQESQLRNEVAILQNLHHPGVVNLECMFETPERVFVVMEKLHGDMLEMILSSEKGRLPEHITKFLITQILVALRHLHFKNIVHCDLKPENVLLASADPFPQVKLCDFGFARIIGEKSFRREVVGTPAYLAPEVLRNKGYNRSLDMWSVGVIIYVSLSGTFPFNEDEDIHDQIQNAAFMYPPNPWKEISHEAIDLINNLLQVKMRKRYSVDKTLSHPWLQDYQTWLDLRELECKIGERYITHESDDLRWEKYAGEQGLQYPTHLINPSAS
notes: Protein kinase D1 (PKD1), human, kinase domain construct, residues 570 to 890; also called single glutamate substitution of S742; source: recombinant, purified to homogeneity
Take B2: the binding result in data set [6] was “binds”.

B3: PKD1^KD 2A (S738A/S742A) (domain or fragment, human, UniProt Q15139 570-890, looked up)
chain: QIQENVDISTVYQIFPDEVLGSGQFGIVYGGKHRKTGRDVAIKIIDKLRFPTKQESQLRNEVAILQNLHHPGVVNLECMFETPERVFVVMEKLHGDMLEMILSSEKGRLPEHITKFLITQILVALRHLHFKNIVHCDLKPENVLLASADPFPQVKLCDFGFARIIGEKAFRRAVVGTPAYLAPEVLRNKGYNRSLDMWSVGVIIYVSLSGTFPFNEDEDIHDQIQNAAFMYPPNPWKEISHEAIDLINNLLQVKMRKRYSVDKTLSHPWLQDYQTWLDLRELECKIGERYITHESDDLRWEKYAGEQGLQYPTHLINPSAS
notes: the sites are S738 and S742; source: recombinant, purified to homogeneity
For the molecule B3, in data set [6], the “stoichiometry N” value was determined as 2.
